From US6521740 (IMMUNEX, dated 2003)

Columns and labels:
recombinant human IL-1α = biological target: T1, recombinant human IL-1α (human, UniProt P01583 113-271, limits assumed); test: Inhibition binding assay; soluble receptor against IL-1α binding to CB23 cells; same procedure
T1 construct: also called Interleukin-1α
T1 sequence (looked up): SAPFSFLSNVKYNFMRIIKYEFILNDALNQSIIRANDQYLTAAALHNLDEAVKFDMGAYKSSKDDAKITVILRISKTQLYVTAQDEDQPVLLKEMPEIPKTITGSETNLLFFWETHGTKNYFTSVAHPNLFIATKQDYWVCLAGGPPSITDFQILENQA

recombinant human IL-1β = biological target: T2, recombinant human IL-1β (human, UniProt P01584 117-269); test: Inhibition binding assay; soluble receptor (COS-7 supernatant, serially diluted) against 125I-IL-1β binding to CB23 cells; phthalate oil separation
T2 construct: The 17.5 kD size is consistent with the mature form; also called rIL-1β
Experimental: The binding inhibition constant of the soluble human type II IL-1R, expressed and purified as described in Example 2 above, is determined by a inhibition binding assay in which varying concentrations of an IL-1β competitor is incubated with a constant amount of radiolabeled I-IL-1β and CB23 cells (an Epstein Barr virus transformed cord blood B lymphocyte cell line) expressing the type II IL-1R. Binding assays were also performed by a phtahlate oil separation method essentially as describe by Dower et al., *J. Immunol.* 132:751, 1984 and Park et al., *J. Biol. Chem.* 261:4177, 1986. Briefly, COS-7 cells were transfected with the expression vector pDC406 containing a cDNA encoding the soluble human type II IL-1R described above. Supernatants from the COS cells were harvested 3 days after transfection and serially diluted in binding medium (Roswell Park Memorial Institute (RPMI) 1640 medium containing 2% BSA, 20 mM Hepes buffer, and 0.2% sodium azide, pH 7.2) in […] to a volume of 50 μl/well. […] Duplicate 60 μl aliquots of the incubation mixture were then transferred to polyethylene centrifuge tubes containing a phthalate oil mixture comprising 1.5 parts dibutylphthalate, to 1 part bis(s-ethylhexyl)phthalate. […] The radioactivity of the cells was then determined on a gamma counter.

B1: soluble human type II IL-1R (amino acids -13-333 of SEQ ID NO:1) (receptor)
chain: FTLQPAAHTGAARSCRFRGRHYKREFRLEGEPVALRCPQVPYWLWASVSPRINLTWHKNDSARTVPGEEETRMWAQDGALWLLPALQEDSGTYVCTTRNASYCDKMSIELRVFENTDAFLPFISYPQILTLSTSGVLVCPDLSEFTRDKTDVKIQWYKDSLLLDKDNEKFLSVRGTTHLLVHDVALEDAGYYRCVLTFAHEGQQYNITRSIELRIKKKKEETIPVIISPLKTISASLGSRLTIPCKVFLGTGTPLTTMLWWTANDTHIESAYPGGRVTEGPRQEYSENNENYIEVPLIFDPVTREDLHMDFKCVVHNTLSFQTLRTTVKEASS
notes: It includes 3 amino acids of the predicted transmembrane region (331-356)
KI (binding inhibition constant, given as an association constant) (recombinant human IL-1α): 1.4e+08 M⁻¹ | KI (binding inhibition constant, given as an association constant) (recombinant human IL-1β): ~3.5e+09 M⁻¹
